Source: patent US20210246204A1 (Alector, published 2021)

Legend:
[1] = biological target: human Siglec-7 on primary human monocyte-derived dendritic cells (human, UniProt Q9Y286 19-467); test: cell-based or functional assay
[2] = biological target: T1, histidine-tagged human Siglec-7 (NovoProtein) (human, UniProt Q9Y286 19-353); test: BLI, antibody captured
T1 construct: Bought protein; also called recombinant human Siglec-7; recombinant Siglec-7; not shown: histidine tag
Protocol: In this assay, the humanized antibodies were compared directly to S7AB. Briefly, the antibodies were captured on anti-human or anti-mouse IgG Fc Biosensors (Pall ForteBio). Varying concentrations (0-100 nM) of histidine-tagged human Siglec-7 (NovoProtein) were then bound to the captured anti-Siglec-7 surface (200 s association time, 900 s dissociation time). Multi-concentration kinetic analysis was performed using a 1:1 interaction model to extract association and dissociation rate constants (kₐ and kd, respectively) for each antibody. Apparent affinity constants (KD) were calculated from the ratio kd/kₐ.
The affinities of S7AB-H8 and variants S7AB-H8.1 through S7AB-H8.45 for human Siglec-7 were measured by BioLayer Interferometry according to the method described in Example 1 above.

Chain of human Siglec-7 on primary human monocyte-derived dendritic cells (Q9Y286 19-467): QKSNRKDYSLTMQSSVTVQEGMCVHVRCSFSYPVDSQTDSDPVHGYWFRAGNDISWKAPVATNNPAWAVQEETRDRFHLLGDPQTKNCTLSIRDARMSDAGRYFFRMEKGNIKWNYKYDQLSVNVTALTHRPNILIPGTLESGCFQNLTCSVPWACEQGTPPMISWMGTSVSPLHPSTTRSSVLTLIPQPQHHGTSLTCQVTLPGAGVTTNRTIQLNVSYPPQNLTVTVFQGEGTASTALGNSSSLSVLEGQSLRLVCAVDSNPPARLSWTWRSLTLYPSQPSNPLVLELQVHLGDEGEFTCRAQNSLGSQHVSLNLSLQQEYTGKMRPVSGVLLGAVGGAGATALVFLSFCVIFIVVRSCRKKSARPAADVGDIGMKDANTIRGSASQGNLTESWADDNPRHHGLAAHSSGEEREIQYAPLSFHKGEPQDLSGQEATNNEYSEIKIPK
T1 sequence (Q9Y286 19-353 limits assumed): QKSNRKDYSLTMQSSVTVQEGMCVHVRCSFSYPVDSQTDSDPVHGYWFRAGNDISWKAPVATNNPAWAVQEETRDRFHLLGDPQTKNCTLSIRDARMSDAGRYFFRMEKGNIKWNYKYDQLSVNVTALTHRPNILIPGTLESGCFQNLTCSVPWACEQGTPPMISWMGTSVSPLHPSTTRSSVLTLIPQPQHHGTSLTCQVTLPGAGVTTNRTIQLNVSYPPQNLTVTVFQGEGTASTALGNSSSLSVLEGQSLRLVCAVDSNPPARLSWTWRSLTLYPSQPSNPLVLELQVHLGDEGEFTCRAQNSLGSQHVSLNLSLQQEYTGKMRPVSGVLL

Row | Fold increase in potency compared to AB-H8 [1] | Fold increase in potency compared to Chimeric Ab [1] | Maximal downregulation (% Siglec-7 remaining) [1] | Receptor downregulation, (EC50) (pM) [1] | Kd [2] | fold improvement over S7AB-H8 [2] | koff [2] | kon [2] | Binder
1 | 2.9 fold | 8.8 fold | 8% | 116 pM | 0.814 nM | 1.3 fold | 0.000104 s⁻¹ | 128000 M⁻¹ s⁻¹ | S7AB-H8.17 (antibody, V domains shown) VH: QVQLVQSGAEVKKPGASVKVSCKASGYAFTMAWMNWVRQAPGQGLEWIGRIFPGYGHTNYAQKFQGRATLTEDTSTSTAYMELSSLRSEDTAVYYCARDYSDYYFDYWGQGTLVTVSS VL: DIQMTQSPSSLSASVGDRVTITCRGSQDTNTYLNWYQQKPGKAPKLLIYYTSRLHSGVPSRFSGSGSGTDYTLTISSLQPEDFATYYCQQGNTLPWTFGQGTKLEIK
2 | 6.7 fold | 20 fold | 3.7% | 51.1 pM | 0.263 nM | 4 fold | 4e-05 s⁻¹ | 152000 M⁻¹ s⁻¹ | S7AB-H8.29 (antibody, V domains shown) VH: QVQLVQSGAEVKKPGASVKVSCKASGYAFTAAWMNWVRQAPGQGLEWIGRIFPGLGHTNYAQKFQGRATLTEDTSTSTAYMELSSLRSEDTAVYYCARDYSDYYFDYWGQGTLVTVSS VL: DIQMTQSPSSLSASVGDRVTITCRASQDANTYLNWYQQKPGKAPKLLIYYTSRLHSGVPSRFSGSGSGTDYTLTISSLQPEDFATYYCQQGNLLPWTFGQGTKLEIK
3 | 1.8 fold | 5.4 fold | 9.2% | 189 pM | 0.265 nM | 4 fold | 2.77e-05 s⁻¹ | 104000 M⁻¹ s⁻¹ | S7AB-H8.25 (antibody, V domains shown) VH: QVQLVQSGAEVKKPGASVKVSCKASGYAFTEAWMNWVRQAPGQGLEWIGRIFPGYGHTNYAQKFQGRATLTEDTSTSTAYMELSSLRSEDTAVYYCARDYSDYYFDYWGQGTLVTVSS VL: DIQMTQSPSSLSASVGDRVTITCRASEDINTYLNWYQQKPGKAPKLLIYYTSRLHSGVPSRFSGSGSGTDYTLTISSLQPEDFATYYCQQGGTLPWTFGQGTKLEIK
4 | 1.9 fold | 5.7 fold | 9.8% | 180 pM | 0.397 nM | 2.6 fold | 5.9e-05 s⁻¹ | 149000 M⁻¹ s⁻¹ | S7AB-H8.26 (antibody, V domains shown) VH: QVQLVQSGAEVKKPGASVKVSCKASGYAFTETWMNWVRQAPGQGLEWIGRIFPGLGHTNYAQKFQGRATLTEDTSTSTAYMELSSLRSEDTAVYYCARDYSDYYFDYWGQGTLVTVSS VL: DIQMTQSPSSLSASVGDRVTITCRASQDANTYLNWYQQKPGKAPKLLIYYTSRLHSGVPSRFSGSGSGTDYTLTISSLQPEDFATYYCQQGNLLPWTFGQGTKLEIK
5 | 2.6 fold | 8 fold | 4.3% | 129 pM | 0.0368 nM | 28.5 fold | 4.81e-06 s⁻¹ | 131000 M⁻¹ s⁻¹ | S7AB-H8.24 (antibody, V domains shown) VH: QVQLVQSGAEVKKPGASVKVSCKASGYAFTAAWMNWVRQAPGQGLEWIGRIFPGLGHTNYAQKFQGRATLTEDTSTSTAYMELSSLRSEDTAVYYCARDYSDYYFDYWGQGTLVTVSS VL: DIQMTQSPSSLSASVGDRVTITCRASEDINTYLNWYQQKPGKAPKLLIYYTSRLHSGVPSRFSGSGSGTDYTLTISSLQPEDFATYYCQQGGTLPWTFGQGTKLEIK
6 | 4.6 fold | 13.7 fold | 17% | 74.6 pM | 0.159 nM | 6.6 fold | 3.51e-05 s⁻¹ | 221000 M⁻¹ s⁻¹ | S7AB-H8.28 (antibody, V domains shown) VH: QVQLVQSGAEVKKPGASVKVSCKASGYAFTGYWMNWVRQAPGQGLEWIGRIFPGLGHTNYAQKFQGRATLTEDTSTSTAYMELSSLRSEDTAVYYCARDYSDYYFDYWGQGTLVTVSS VL: DIQMTQSPSSLSASVGDRVTITCRASQDANTYLNWYQQKPGKAPKLLIYYTSRLHSGVPSRFSGSGSGTDYTLTISSLQPEDFATYYCQQGNLLPWTFGQGTKLEIK
7 | 5 fold | 15.2 fold | 18.9% | 67.3 pM | 0.712 nM | 1.5 fold | 0.000142 s⁻¹ | 199000 M⁻¹ s⁻¹ | S7AB-H8.18 (antibody, V domains shown) VH: QVQLVQSGAEVKKPGASVKVSCKASGYAFTGYWMNWVRQAPGQGLEWIGRIFPGLGHTNYAQKFQGRATLTEDTSTSTAYMELSSLRSEDTAVYYCARDYSDYYFDYWGQGTLVTVSS VL: DIQMTQSPSSLSASVGDRVTITCRGSQDTNTYLNWYQQKPGKAPKLLIYYTSRLHSGVPSRFSGSGSGTDYTLTISSLQPEDFATYYCQQGNTLPWTFGQGTKLEIK
8 | 3.5 fold | 10.5 fold | 6.7% | 97.8 pM | 0.898 nM | 1.2 fold | 0.000112 s⁻¹ | 125000 M⁻¹ s⁻¹ | S7AB-H8.19 (antibody, V domains shown) VH: QVQLVQSGAEVKKPGASVKVSCKASGYAFTAAWMNWVRQAPGQGLEWIGRIFPGLGHTNYAQKFQGRATLTEDTSTSTAYMELSSLRSEDTAVYYCARDYSDYYFDYWGQGTLVTVSS VL: DIQMTQSPSSLSASVGDRVTITCRGSQDTNTYLNWYQQKPGKAPKLLIYYTSRLHSGVPSRFSGSGSGTDYTLTISSLQPEDFATYYCQQGNTLPWTFGQGTKLEIK
9 | 3.1 fold | 9.4 fold | 3.9% | 109 pM | < 0.001 nM | > 1000 fold | < 1e-07 s⁻¹ | 135000 M⁻¹ s⁻¹ | S7AB-H8.22 (antibody, V domains shown) VH: QVQLVQSGAEVKKPGASVKVSCKASGYAFTMAWMNWVRQAPGQGLEWIGRIFPGYGHTNYAQKFQGRATLTEDTSTSTAYMELSSLRSEDTAVYYCARDYSDYYFDYWGQGTLVTVSS VL: DIQMTQSPSSLSASVGDRVTITCRASEDINTYLNWYQQKPGKAPKLLIYYTSRLHSGVPSRFSGSGSGTDYTLTISSLQPEDFATYYCQQGGTLPWTFGQGTKLEIK
10 | 3.8 fold | 11.4 fold | 17.2% | 90.1 pM | 0.235 nM | 4.5 fold | 5.53e-05 s⁻¹ | 235000 M⁻¹ s⁻¹ | S7AB-H8.23 (antibody, V domains shown) VH: QVQLVQSGAEVKKPGASVKVSCKASGYAFTGYWMNWVRQAPGQGLEWIGRIFPGLGHTNYAQKFQGRATLTEDTSTSTAYMELSSLRSEDTAVYYCARDYSDYYFDYWGQGTLVTVSS VL: DIQMTQSPSSLSASVGDRVTITCRASEDINTYLNWYQQKPGKAPKLLIYYTSRLHSGVPSRFSGSGSGTDYTLTISSLQPEDFATYYCQQGGTLPWTFGQGTKLEIK
11 | 1.4 fold | 4.2 fold | 10.6% | 245 pM | 1.81 nM | 0.6 fold | 0.000145 s⁻¹ | 79900 M⁻¹ s⁻¹ | S7AB-H8.20 (antibody, V domains shown) VH: QVQLVQSGAEVKKPGASVKVSCKASGYAFTEAWMNWVRQAPGQGLEWIGRIFPGYGHTNYAQKFQGRATLTEDTSTSTAYMELSSLRSEDTAVYYCARDYSDYYFDYWGQGTLVTVSS VL: DIQMTQSPSSLSASVGDRVTITCRGSQDTNTYLNWYQQKPGKAPKLLIYYTSRLHSGVPSRFSGSGSGTDYTLTISSLQPEDFATYYCQQGNTLPWTFGQGTKLEIK
12 | 3.6 fold | 10.9 fold | 2.9% | 93.7 pM | 0.1 nM | 10.5 fold | 1.56e-05 s⁻¹ | 156000 M⁻¹ s⁻¹ | S7AB-H8.27 (antibody, V domains shown) VH: QVQLVQSGAEVKKPGASVKVSCKASGYAFTMAWMNWVRQAPGQGLEWIGRIFPGYGHTNYAQKFQGRATLTEDTSTSTAYMELSSLRSEDTAVYYCARDYSDYYFDYWGQGTLVTVSS VL: DIQMTQSPSSLSASVGDRVTITCRASQDANTYLNWYQQKPGKAPKLLIYYTSRLHSGVPSRFSGSGSGTDYTLTISSLQPEDFATYYCQQGNLLPWTFGQGTKLEIK
13 | 2.2 fold | 6.8 fold | 13.6% | 152 pM | 0.936 nM | 1.1 fold | 0.000125 s⁻¹ | 133000 M⁻¹ s⁻¹ | S7AB-H8.21 (antibody, V domains shown) VH: QVQLVQSGAEVKKPGASVKVSCKASGYAFTETWMNWVRQAPGQGLEWIGRIFPGLGHTNYAQKFQGRATLTEDTSTSTAYMELSSLRSEDTAVYYCARDYSDYYFDYWGQGTLVTVSS VL: DIQMTQSPSSLSASVGDRVTITCRASEDINTYLNWYQQKPGKAPKLLIYYTSRLHSGVPSRFSGSGSGTDYTLTISSLQPEDFATYYCQQGGTLPWTFGQGTKLEIK
